Results from article PMC12753105.

Assays:
[1] = target: SARS-CoV-2 N-protein N:G215C (reduced), full length (SARS-CoV-2) (UniProt P0DTC9); test: AUC
[2] = target: SARS-CoV-2 N-protein N:G215C (reduced), full length (SARS-CoV-2) (UniProt P0DTC9); test: mass photometry
[3] = target: SARS-CoV-2 N-protein N:G215C* (oxidized), full length (SARS-CoV-2) (UniProt P0DTC9); test: mass photometry
[4] = target: SARS-CoV-2 N-protein N:R203K/G204R, full length (SARS-CoV-2) (UniProt P0DTC9); test: mass photometry
[5] = target: SARS-CoV-2 N-protein Nο (N:P13L/Δ31–33/R203K/G204R), full length (SARS-CoV-2) (UniProt P0DTC9); test: mass photometry

Substance: SARS-CoV-2 N-protein N:G215C (reduced), full length (from UniProt P0DTC9 1-419) (natural protein)
- Kd [1]: 1 µM
- best-fit effective RNP life-time (with SL7 RNA) [2]: 231 s

Substance: SARS-CoV-2 N-protein N:G215C* (oxidized), full length (from UniProt P0DTC9 1-419) (natural protein)
- best-fit effective RNP life-time (with SL7 RNA) [3]: 41.8 s

Substance: SARS-CoV-2 N-protein N:R203K/G204R, full length (from UniProt P0DTC9 1-419) (natural protein)
- best-fit effective RNP life-time (with SL7 RNA) [4]: 54.6 s

Substance: SARS-CoV-2 N-protein Nο (N:P13L/Δ31–33/R203K/G204R), full length (from UniProt P0DTC9 1-419) (natural protein)
- best-fit effective RNP life-time (with SL7 RNA) [5]: 58.5 s
